Test [1] concerns the target T1, human C1s mutant M15 (S360N) (human, UniProt P09871 16-688).
T1 construct: The entry is the mutant itself
T1 sequence: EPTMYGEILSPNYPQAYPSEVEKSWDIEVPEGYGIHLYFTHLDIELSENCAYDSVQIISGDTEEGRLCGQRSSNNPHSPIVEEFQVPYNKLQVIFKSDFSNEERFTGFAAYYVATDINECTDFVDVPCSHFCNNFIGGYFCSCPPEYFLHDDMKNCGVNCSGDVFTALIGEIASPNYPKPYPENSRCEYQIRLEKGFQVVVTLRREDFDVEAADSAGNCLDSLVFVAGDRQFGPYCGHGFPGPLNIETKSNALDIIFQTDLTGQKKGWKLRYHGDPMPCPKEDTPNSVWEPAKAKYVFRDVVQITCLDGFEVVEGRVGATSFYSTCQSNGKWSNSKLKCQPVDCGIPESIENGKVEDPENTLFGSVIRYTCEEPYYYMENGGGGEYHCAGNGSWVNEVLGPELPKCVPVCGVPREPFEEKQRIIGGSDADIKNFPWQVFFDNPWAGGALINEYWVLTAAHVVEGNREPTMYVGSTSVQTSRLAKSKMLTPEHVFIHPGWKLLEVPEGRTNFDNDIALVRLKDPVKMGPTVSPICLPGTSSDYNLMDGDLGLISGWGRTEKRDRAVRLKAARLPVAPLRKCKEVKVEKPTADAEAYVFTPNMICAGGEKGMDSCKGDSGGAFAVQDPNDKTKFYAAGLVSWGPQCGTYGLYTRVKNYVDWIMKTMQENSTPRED
Kind of test: ELISA, plate coated with human C1s mutant M15: S360N, OD450nm. As for the experimental part: (§1) ELISA was carried out by first coating 96-well plates with 200 ng/well of full-length or truncated C1s proteins overnight. The next morning, plates were blocked with SuperBlock T20 blocking buffer (Thermo Scientific 37536) for 1 h with gentle shaking. Then, various concentrations of anti-C1s antibodies diluted in SuperBlock T20 blocking buffer were added to the plates and incubated for 1 h with gentle shaking. Mouse IgG (Sigma-Aldrich 15381) and human IgG1 (BioXCell BP0297) were used as negative controls. The plates were washed before incubating with HRP conjugated secondary antibodies diluted in SuperBlock T20 blocking buffer (goat anti-mouse IgG (H+L) cross-adsorbed secondary antibody HRP (Invitrogen G-21040) or goat anti-human IgG antibody, HRP conjugate (Millipore AP309P)) for 1 h with gentle shaking. At last, the plates were washed and color developed with ELISA liquid HRP substrate (Sigma-Aldrich), followed by stopping the reaction with addition of 1M H₂SO₄ in the same volume as the ELISA liquid substrate. Bound antibody was measured by absorbance at OD₄₅₀ₙₘ.
(§2) Binding of anti-C1s antibodies to mutants M1-M20 of human C1s was measured by ELISA as described in Example 4, and results are shown in FIGS. 6B-6U. All anti-C1s humanized variants including hz2-7(H1L2), hz2-8(H1L2 G80A) and hz2-8(H1L2 G80A/T82A) maintained strong binding properties to the majority (16 out of 20) of C1s mutants including M1 (FIG. 6B), M2 (FIG. 6C), M3 (FIG. 6D). M4 (FIG. 6E), M7 (FIG. 6H), M8 (FIG. 6I), M10 (FIG. 6K), M11 (FIG. 6L), M12 (FIG. 6M), M13 (FIG. 6N), M15 (FIG. 6P), M16 (FIG. 6Q), M17 (FIG. 6R), M18 (FIG. 6S), M19 (FIG. 6T) and M20 (FIG. 6U).
In general terms: In an ELISA, binding on a coated surface is turned into a signal by an enzyme label.

For test [2], the target named is T2, human C1s mutant M20 (A320S) (human, UniProt P09871 16-688).
T2 construct: The entry is the mutant itself
T2 sequence: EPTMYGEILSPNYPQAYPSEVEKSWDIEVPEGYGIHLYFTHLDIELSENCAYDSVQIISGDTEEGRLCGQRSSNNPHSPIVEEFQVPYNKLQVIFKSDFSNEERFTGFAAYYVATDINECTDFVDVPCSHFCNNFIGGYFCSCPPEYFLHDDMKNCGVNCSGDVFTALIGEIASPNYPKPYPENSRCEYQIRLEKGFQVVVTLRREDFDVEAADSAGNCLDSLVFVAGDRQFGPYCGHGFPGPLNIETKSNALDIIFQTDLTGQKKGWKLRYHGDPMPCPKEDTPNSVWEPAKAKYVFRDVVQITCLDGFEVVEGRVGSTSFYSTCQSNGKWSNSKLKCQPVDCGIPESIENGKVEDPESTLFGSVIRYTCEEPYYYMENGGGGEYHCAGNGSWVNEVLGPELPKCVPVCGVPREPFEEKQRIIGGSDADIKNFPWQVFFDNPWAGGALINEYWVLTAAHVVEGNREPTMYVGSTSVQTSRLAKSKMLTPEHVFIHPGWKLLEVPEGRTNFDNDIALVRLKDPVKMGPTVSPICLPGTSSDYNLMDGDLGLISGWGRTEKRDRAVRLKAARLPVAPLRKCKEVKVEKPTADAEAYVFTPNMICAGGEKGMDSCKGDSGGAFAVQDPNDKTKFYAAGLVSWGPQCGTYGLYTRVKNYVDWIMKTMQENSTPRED
The experiment in a line: ELISA, plate coated with human C1s mutant M20: A320S, OD450nm. As for the experimental part:
as §1, §2

Test [3] addresses T3, human C1s mutant M17 (N380H) (human, UniProt P09871 16-688).
T3 construct: The entry is the mutant itself
T3 sequence: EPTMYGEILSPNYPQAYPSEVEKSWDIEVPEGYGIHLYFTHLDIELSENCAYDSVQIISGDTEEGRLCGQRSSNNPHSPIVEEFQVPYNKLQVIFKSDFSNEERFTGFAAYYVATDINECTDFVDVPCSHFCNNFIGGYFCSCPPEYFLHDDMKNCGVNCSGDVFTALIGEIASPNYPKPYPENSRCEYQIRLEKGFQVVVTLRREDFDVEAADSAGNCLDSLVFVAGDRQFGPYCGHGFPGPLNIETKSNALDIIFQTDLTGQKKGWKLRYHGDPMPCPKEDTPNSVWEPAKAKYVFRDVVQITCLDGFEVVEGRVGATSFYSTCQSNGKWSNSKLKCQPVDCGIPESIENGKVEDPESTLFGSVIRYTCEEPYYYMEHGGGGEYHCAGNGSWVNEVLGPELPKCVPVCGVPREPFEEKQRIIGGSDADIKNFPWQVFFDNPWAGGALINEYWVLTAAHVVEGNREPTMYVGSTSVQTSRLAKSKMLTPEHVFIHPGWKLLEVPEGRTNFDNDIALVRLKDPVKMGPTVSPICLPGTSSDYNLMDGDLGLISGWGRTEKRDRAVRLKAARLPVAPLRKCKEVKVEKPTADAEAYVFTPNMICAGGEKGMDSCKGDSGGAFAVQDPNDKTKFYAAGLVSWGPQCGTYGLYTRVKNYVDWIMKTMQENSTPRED
Kind of test: ELISA, plate coated with human C1s mutant M17: N380H, OD450nm. The procedure:
as §1, §2

B1: Anti-C1s antibody hz2-7(H1L2) (antibody, V domains shown)
VH: EVQLLESGGGLVQPGGSLRLSCAASGFTFSNYFMNWVRQAPGKGLEWVSEIRLKFTNYATHYADSVKGRFTISRDDSKSTLYLQMNSLRAEDTAVYYCTRDYGSRNGYFDYWGQGTLVTVSS
VL: DIVMTQTPLSLPVTPGEPASISCRSSKSLLHSNGNTFLYWFLQKPGQSPQLLIYRMSNLASGVPDRFSGSGSGTDFTLKISRVEAEDVGVYYCMQHLEYPYTFGGGTKLEIKR
notes: Humanized, human IgG1 / kappa; also called hz2-7(1L2)
In the case of B1, the figures for the EC50 in test [1], in test [2] and in test [3] were 3 ng/mL, 4 ng/mL and 4 ng/mL, respectively.

B2: Anti-C1s antibody hz2-8 (H1L2 G80A) (antibody, V domains shown)
VH: QVQLVQSGAEVKKPGASVKVSCKASGFNIKEYYMHWVRQAPEQGLEWMGWIDPENADTIYAQKFQGRVTITADTSTNTAYMELSSLRSEDTAVYYCARSRLFFAYWGQGTLVTVSS
VL: DIQMTQSPKSLSASVGDRVTITCRASQDVRTALDWYQQKPGQSPKLLIYSASYRYSGVPSRFSGSGSGTDFTLTISSLQPEDFATYYCQQQYTTPYTFGQGTKLEIKR
notes: Humanized variant with G80A in HC CDR2 (already in the entry), human IgG1 / kappa
With B2, the EC50 turned out to be 4 ng/mL in test [1], 3 ng/mL in test [2] and 5 ng/mL in test [3].

B3: Anti-C1s antibody hz2-8 (H1L2 G80A/T82A) (antibody, V domains shown)
VH: QVQLVQSGAEVKKPGASVKVSCKASGFNIKEYYMHWVRQAPEQGLEWMGWIDPENADAIYAQKFQGRVTITADTSTNTAYMELSSLRSEDTAVYYCARSRLFFAYWGQGTLVTVSS
VL: DIQMTQSPKSLSASVGDRVTITCRASQDVRTALDWYQQKPGQSPKLLIYSASYRYSGVPSRFSGSGSGTDFTLTISSLQPEDFATYYCQQQYTTPYTFGQGTKLEIKR
notes: Humanized variant with G80A and T82A in HC CDR2 (already in the entry), human IgG1 / kappa
In the case of B3, the EC50 came out at 5 ng/mL in test [1], 5 ng/mL in test [2] and 8 ng/mL in test [3].

What is called EC50 is the concentration giving half of the maximal effect.
